Laboratory results reported in patent US9266964.

How the values were obtained:
human plasma kallikrein [1] = biological target: T1, human plasma kallikrein (human, UniProt P03952 20-390; P03952 391-638); test: ELISA; signal on coated biotinylated human plasma kallikrein divided by signal on streptavidin; Fab
T1 construct: two disulfide-linked chains; also called pKal; human pKal
From the text: Abbreviations used: "T/B" is the ELISA signal obtained using of the target (biotinylated plasma kallikrein) divided by the ELISA signal of the "background" (streptavidin); both of which were coated on microtiter plates. "nd" is not determined. The symbol "q" refers to the amber suppressible stop codon (TAG), which is translated as glutamine (Q) in strains of E. coli such as the TG1 cells that were used to express the Fab fragments.
T1 sequence (P03952 20-390, chain 1 of 2): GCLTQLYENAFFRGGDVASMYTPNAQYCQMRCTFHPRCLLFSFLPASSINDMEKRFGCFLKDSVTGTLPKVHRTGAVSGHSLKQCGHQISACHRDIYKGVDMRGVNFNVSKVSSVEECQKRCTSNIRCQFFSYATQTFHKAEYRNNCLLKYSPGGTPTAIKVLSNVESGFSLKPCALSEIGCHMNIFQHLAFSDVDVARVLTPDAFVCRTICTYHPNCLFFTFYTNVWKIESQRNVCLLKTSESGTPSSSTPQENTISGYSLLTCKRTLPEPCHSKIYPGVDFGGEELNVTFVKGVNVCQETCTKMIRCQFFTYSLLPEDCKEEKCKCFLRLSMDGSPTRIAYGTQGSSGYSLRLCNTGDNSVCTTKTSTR
T1 sequence (P03952 391-638, chain 2 of 2): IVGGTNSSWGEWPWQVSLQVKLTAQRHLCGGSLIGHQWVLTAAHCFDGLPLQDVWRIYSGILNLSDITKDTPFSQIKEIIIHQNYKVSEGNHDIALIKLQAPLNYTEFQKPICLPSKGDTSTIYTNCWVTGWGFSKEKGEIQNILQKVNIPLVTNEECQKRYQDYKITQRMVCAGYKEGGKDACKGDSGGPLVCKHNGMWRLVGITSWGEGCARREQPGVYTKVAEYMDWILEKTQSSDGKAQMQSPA

human plasma kallikrein [2] = biological target: human plasma kallikrein (human, UniProt P03952 20-390; P03952 391-638); test: cell-based or functional assay
Target sequence in this assay (P03952 20-390, chain 1 of 2): as the sequence (P03952 20-390, chain 1 of 2) above
Target sequence in this assay (P03952 391-638, chain 2 of 2): as the sequence (P03952 391-638, chain 2 of 2) above

Binder	Human pKal ELISA (T/B) (human plasma kallikrein [1])	% inhibition at 10 nM (human plasma kallikrein [2]) [%]
M9-E04 (Fab, V domains shown, Fab fragment (E. coli TG1); printed HC runs into the start of CH1) VH: EVQLLESGGGLVQPGGSLRLSCAASGFTFSEYDMMWVRQAPGKGLEWVSSIGSSGGMTYYADSVKGRFTISRDNSKNTLYLQMNSLRAEDTAVYYCARDQVAAAAIDYWGQGTLVTVSS VL: DIQMIQSPSSLSASVGDRVTITCRASQSISGYLNWYQQRSGKAPKLLIFAASNLQTGVPSRFSGSGSGTDFTLTINNLQPEDFATYYCQQSHTPPKTFGPGTKVDIK	18.8 T/B (target signal / background signal)	–
M10-A12 (Fab, V domains shown, Fab fragment (E. coli TG1); printed HC runs into the start of CH1) VH: EVQLLESGGGLVQPGGSLRLSCAASGFTFSLYLMHWVRQAPGKGLEWVSSIYSSGGFTTYADSVKGRFTISRDNSKNTLYLQMNSLRAEDTAVYYCARDTDYGMDVWGQGTTVTVSS VL: DIQMTQSPLSLSAFVGDRVTITCRASRDISVYLNWYQLKSGKAPKLLIYGASSLQSGVPSRFSGSGSGTDFTLTITSLQPEDFATYYCQQSYSIPFTFGGGTKVETK	20.8 T/B (target signal / background signal)	–
M9-C10 (Fab, V domains shown, Fab fragment (E. coli TG1); printed HC runs into the start of CH1) VH: EVQLLESGGGLVQPGGSLRLSCAASGFTFSLYPMQWVRQAPGKGLEWVSSIGSSGGMTFYADSVKGRFTISRDNSKNTLYLQMNSLRAEDTAVYYCTREVGAAGFAFDIWGQGTMVTVSS VL: DIQMTQSPSSLSASVGDRVTITCRASQGISSYLNWYQQKPGNAPNLLIYGASSLQSGVPSRFSGSGSGTDFTLTISSLQPEDFATYYCQESYSTLFTFGPGTTVEIK	7.8 T/B (target signal / background signal)	–
M9-F10 (Fab, V domains shown, Fab fragment (E. coli TG1); printed HC runs into the start of CH1) VH: EVQLLESGGGLVQPGGSLRLSCAASGFTFSDYDMEWVRQAPGKGLEWVSSISPSGGSTIYADSVKGRFTISRDNSKNTLYLQMNSLRAEDTAVYYCARQGLLTAFDIWGQGTMVTVSS VL: DIQMTQSPSSLSASVGDRVTITCRASQSINTYLNWYQQKPGKAPKVLIHAASTLESGVPSRFSGSGSGTDFTLTISSLQPEDFATYYCQQSYSTPYTFGQGTKLEVR	8.4 T/B (target signal / background signal)	–
M9-H04 (Fab, V domains shown, Fab fragment (E. coli TG1); printed HC runs into the start of CH1) VH: EVQLLESGGGLVQPGGSLRLSCAASGFTFSAYTMWWVRQAPGKGLEWVSSIWPSGGSTFYADSVKGRFTISRDNSKNTLYLQMNSLRAEDTAVYYCARTYDSSAGEVDYWGQGTLVTVSS VL: not shown	16.1 T/B (target signal / background signal)	–
M9-C08 (Fab, V domains shown, Fab fragment (E. coli TG1); printed HC runs into the start of CH1) VH: EVQLLESGGGLVQPGGSLRLSCAASGFTFSHYGMVWVRQAPGKGLEWVSYIVPSGGLTYYADSVKGRFTISRDNSKNTLYLQMNSLRAEDTAVYYCARVDYTGDGLGYWGQGTLVTVSS VL: DIQMTQSPSSLSASVGDRVTITCRASQSISIYVNWYQQKPGKAPNLLIFAASSLQRGVPSRFSGSGSGADFTLTISSLQPEDFATYYCQQSFSTPLTFGGGTKVEIK	10.9 T/B (target signal / background signal)	–
M9-F08 (Fab, V domains shown, Fab fragment (E. coli TG1); printed HC runs into the start of CH1; The LC is printed with an amber codon 'q' (MTqSPS), written here as Q) VH: EVQLLESGGGLVQPGGSLRLSCAASGFTFSPYAMTWVRQAPGKGLEWVSVIYPSGGFTDYADSVKGRFTISRDNSKNTLYLQMNSLRAEDTAMYYCARASGSYLDAFDIWGQGTMVTVSS VL: not shown	10.9 T/B (target signal / background signal)	–
M198-H09 (Fab, V domains shown) VH: EVQLLESGGGLVQPGGSLRLSCAASGFTFSIYLMIWVRQAPGKGLEWVSYIGPSGGPTEYADSVKGRFTISRDNSKNTLYLQMNSLRAEDTAVYYCAYRRTGIPRRDAFDIWGQGTMVTVSS VL: DIQMTQSPSTLSASVGDRVTITCRASQSISSWLAWYQQKPGKAPNLLIYKASTLESGVPSRFSGSGSGTEFTLTISSLQPDDFATYYCQQYNTYWTFGQGTKVEIK	–	41.1
M202-A10 (Fab, V domains shown) VH: EVQLLESGGGLVQPGGSLRLSCAASGFTFSHYIMMWVRQAPGKGLEWVSGIYSSGGITVYADSVKGRFTISRDNSKNTLYLQMNSLRAEDTAVYYCAFRRTGIPRRDSFDIWGQGTMVTVSS VL: DIQMTQSPSTLSASVGDRVTITCRASQSISSWLAWYQQKPGKAPNLLIYKASTLESGVPSRFSGSGSGTEFTLTISSLQPDDFATYYCQQYNTYWTFGQGTKVEIK	–	36.3
M201-F11 (Fab, V domains shown) VH: EVQLLESGGGLVQPGGSLRLSCAASGFTFSHYIMMWVRQAPGKGLEWVSGIYSSGGITVYADSVKGRFTISRDNSKNTLYLQMNSLRAEDTAVYYCAYRRSGIPRRDAFDIWGQGTMVTVSS VL: DIQMTQSPSTLSASVGDRVTITCRASQSISSWLAWYQQKPGKAPNLLIYKASTLESGVPSRFSGSGSGTEFTLTISSLQPDDFATYYCQQYNTYWTFGQGTKVEIK	–	15.7
M9-H03 (Fab, V domains shown, Fab fragment (E. coli TG1); printed HC runs into the start of CH1) VH: EVQLLESGGGLVQPGGSLRLSCAASGFTFSWYSMGWVRQAPGKGLEWVSYIVPSGGYTMYADSVKGRFTISRDNSKNTLYLQMNSLRAEDTAVYYCARDPGVSYYYYGMDVWGQGTTVTVSS VL: QYELTQAPSVSVAPGQTASITCSGDKLGNRYTSWYQQKPGQSPVLVIFQDNKRPSGIPERFSGSNSGNTATLTISGTQAMDEADYYCQALDSNTYVFGTGTKVTVL	4.4 T/B (target signal / background signal)	–
M9-A08 (Fab, V domains shown, Fab fragment (E. coli TG1); printed HC runs into the start of CH1) VH: EVQLLESGGGLVQPGGSLRLSCAASGFTFSAYEMWWVRQAPGKGLEWVSYIGSSGGSTSYADSVKGRFTISRDNSKNTLYLQMNSLRAEDTAVYYCTGGNSSSFDAFDIWGQGTMVTVSS VL: DIQMTQSPSSLSASVGDRVTVTCRASQRISTYLNWYQQKPGKAPKLLISGASSLQSGVPSRFSGSGSGTDFTLTISSLQPDDFATYYCQQSYNTPRTFGQGTKVEIR	5.5 T/B (target signal / background signal)	–
M9-F09 (Fab, V domains shown, Fab fragment (E. coli TG1); printed HC runs into the start of CH1) VH: EVQLLESGGGLVQPGGSLRLSCAASGFTFSSYPMGWVRQAPGKGLEWVSRISSSGGMTIYADSVKGRFTISRDNSKNTLYLQMNSLRAEDTAVYYCARDDWNVGMDVWGQGTTVTVSS VL: DIQMTQSPSSLSASVGDRVTITCRASQSISSYLNWYQQKPGKAPKLLIYAASSLQSGVPSKFSGSGSGTDYTLTISSLQPEDFATYYCQQTYTTPWTFGQGTKVEIK	7 T/B (target signal / background signal)	–
M9-H02 (Fab, V domains shown, Fab fragment (E. coli TG1); printed HC runs into the start of CH1) VH: EVQLLESGGGLVQPGGSLRLSCAASGFTFSAYMMIWVRQAPGKGLEWVSVIYPSGGVTMYADSVKGRFTISRDNSKNTLYLQMNSLRAEDTAVYYCARGTVGASDAFDIWGQGTMVTVSS VL: DIQMTQSPSSLSASVGDRVIITCRASRSIATYLNWYQQKPGKAPNLLIFGASTLQSGVPSRFSGSGSGTDFTLTISDLQPEDFATYYCQQSFSDPYTFGQGTNLEMK	3.5 T/B (target signal / background signal)	–

The next lines start with the values.

Human pKal ELISA (T/B) (human plasma kallikrein [1])	% inhibition at 10 nM (human plasma kallikrein [2]) [%]	Binder
35.9 T/B (target signal / background signal)	–	M9-D08 (Fab, V domains shown, Fab fragment (E. coli TG1); printed HC runs into the start of CH1) VH: EVQLLESGGGLVQPGGSLRLSCAASGFTFSWYKMMWVRQAPGKGLEWVSSIYPSGGWTNYADSVKGRFTISRDNSKNTLYLQMNSLRAEDTAVYYCTRGSPWGDDAFDIWGQGTMVTVSS VL: DIQMTQSPSSLSASVGDRVTLTCRASRTISFYLNWYQQKAGKAPELLIYGGSSLHSGVPSRFSGSGSGTDFSLTISNLQPEDIAVYYCQQSFSSPWTFGQGTKVEIK
4.8 T/B (target signal / background signal)	–	M9-G08 (Fab, V domains shown, Fab fragment (E. coli TG1); printed HC runs into the start of CH1) VH: EVQLLESGGGLVQPGGSLRLSCAASGFTFSYYTMLWVRQAPGKGLEWVSSIYPSGGFTMYADSVKGRFTISRDNSKNTLYLQMNSLRAEDTAVYYCARVDTAMAMIDYWGQGTLVTVSS VL: not shown
–	42.6	M200-B01 (Fab, V domains shown) VH: EVQLLESGGGLVQPGGSLRLSCAASGFTFSHYIMMWVRQAPGKGLEWVSGIYSSGGITVYADSVKGRFTISRDNSKNTLYLQMNSLRAEDTAVYYCAYRRTGIPRRDAFDSWGQGTMVTVSS VL: DIQMTQSPSTLSASVGDRVTITCRASQSISSWLAWYQQKPGKAPNLLIYKASTLESGVPSRFSGSGSGTEFTLTISSLQPDDFATYYCQQYNTYWTFGQGTKVEIK
–	13.8	M198-A01 (Fab, V domains shown) VH: EVQLLESGGGLVQPGGSLRLSCAASGFTFSPYTMIWVRQAPGKLGEWVSSISSSGGMTPYADSVKGRFTISRDNSKNTLYLQMNSLRAEDTAVYYCAYRRTGIPRRDAFDIWGQGTMVTVSS VL: DIQMTQSPSTLSASVGDRVTITCRASQSISSWLAWYQQKPGKAPNLLIYKASTLESGVPSRFSGSGSGTEFTLTISSLQPDDFATYYCQQYNTYWTFGQGTKVEIK
–	19.2	M197-G11 (Fab, V domains shown) VH: EVQLLESGGGLVQPGGSLRLSCAASGFTFSTYAMVWVRQAPGKGLEWVSSIYPSGGITTYADSVKGRFTISRDNSKNTLYLQMNSLRAEDTAVYYCAYRRTGIPRRDAFDIWGQGTMVTVSS VL: DIQMTQSPSTLSASVGDRVTITCRASQSISSWLAWYQQKPGKAPNLLIYKASTLESGVPSRFSGSGSGTEFTLTISSLQPDDFATYYCQQYNTYWTFGQGTKVEIK
–	38	M195-E12 (Fab, V domains shown) VH: EVQLLESGGGLVQPGGSLRLSCAASGFTFSYYIMFWVRQAPGKGLEWVSYISPSGGYTHYADSVKGRFTISRDNSKNTLYLQMNSLRAEDTAVYYCAYRRTGIPRRDAFDIWGQGTMVTVSS VL: DIQMTQSPSTLSASVGDRVTITCRASQSISSWLAWYQQKPGKAPNLLIYKASTLESGVPSRFSGSGSGTEFTLTISSLQPDDFATYYCQQYNTYWTFGQGTKVEIK
–	36.8	M201-A06 (Fab, V domains shown) VH: EVQLLESGGGLVQPGGSLRLSCAASGFTFSHYIMMWVRQAPGKGLEWVSGIYSSGGITVYADSVKGRFTISRDNSKNTLYLQMNSLRAEDTAVYYCAYRRTGIPRRDVFDIWGQGTMVTVSS VL: DIQMTQSPSTLSASVGDRVTITCRASQSISSWLAWYQQKPGKAPNLLIYKASTLESGVPSRFSGSGSGTEFTLTISSLQPDDFATYYCQQYNTYWTFGQGTKVEIK
33.7 T/B (target signal / background signal)	–	M10-A03 (Fab, V domains shown, Fab fragment (E. coli TG1); printed HC runs into the start of CH1) VH: EVQLLESGGGLVQPGGSLRLSCAASGFTFSPYPMQWVRQAPGKGLEWVSSISSSGGMTEYADSVKGRFTISRDNSKNTLYLQMNSLRAEDTAVYYCARDDYGGKGGAFDIWGQGTMVTVSS VL: DIQMTQSPSSLSASVGDRVTITCRASQRISFYLNWFQQKPGKAPNLLIYGASSLQSGVPSRFSGSGSGTDFTLTISSLQPKDFGTYYCQQTFSTPNTFGQGTKLEIK
